Data taken from article PMC5568246.
One block for each substance: values may come before it.

What was measured:
[1] = target: 70S ribosomes (E. coli JE28, with endogenous L7/L12) (E. coli (endogenous in JE28)) (UniProt P0A7K2); experiment: other fluorescence titration
[2] = target: L7/L12-depleted 70S ribosomes (E. coli (endogenous in JE28)) (UniProt P0A7J3); experiment: SEC
[3] = target: L7/L12-depleted 70S ribosomes (E. coli (endogenous in JE28)) (UniProt P0A7J3); experiment: co-sedimentation
[4] = target: L7/L12-depleted 70S ribosomes reconstituted with recombinant L12 (E. coli | E. coli (endogenous in JE28)) (UniProt P0A7K2); experiment: co-sedimentation
[5] = target: recombinant ribosomal protein L12 (E. coli) (UniProt P0A7K2); experiment: SEC

Sequence of UniProt P0A7J3 (P0A7J3 whole entry, looked up): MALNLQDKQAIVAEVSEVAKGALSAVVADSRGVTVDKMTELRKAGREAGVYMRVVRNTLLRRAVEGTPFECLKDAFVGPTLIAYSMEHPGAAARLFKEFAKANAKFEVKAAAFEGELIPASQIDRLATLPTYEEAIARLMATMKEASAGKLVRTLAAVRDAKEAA

percent co-eluted with the ribosomes [2]: 20%
Substance: elongation factor G (from UniProt P0A6M8 1-704) (enzyme)

stoichiometry N [5]: 2
Substance: recombinant ribosomal protein L12 (from UniProt P0A7K2 1-121) (natural protein)

More lines, now with the values behind:

Substance: EF-G-591 coupled with 5-iodoacetomido fluorescein (from UniProt P0A6M8 1-704) (enzyme)
Kd [1]: 23 nM

Substance: leader peptidase A (from UniProt P60785 1-599) (enzyme)
percent binding retained [2]: > 50%
percent binding retained [3]: > 50%

Substance: release factor 3 (from UniProt P0A7I4 1-529) (enzyme)
percent binding relative to complete 70S [4]: 100%

Substance: initiation factor 2 (from UniProt P0A705 1-890) (enzyme)
percent binding relative to complete 70S [4]: 100%
